Measurements from patent US20170233485A1 (published 2017).
Values belong to the binder of their own block, whether it stands above or below them.

What was measured:
[1] = biological target: T1, human FcγR CD64-GST fusion protein (human, UniProt P12314 16-292); test: ALPHAscreen competition
T1 chain: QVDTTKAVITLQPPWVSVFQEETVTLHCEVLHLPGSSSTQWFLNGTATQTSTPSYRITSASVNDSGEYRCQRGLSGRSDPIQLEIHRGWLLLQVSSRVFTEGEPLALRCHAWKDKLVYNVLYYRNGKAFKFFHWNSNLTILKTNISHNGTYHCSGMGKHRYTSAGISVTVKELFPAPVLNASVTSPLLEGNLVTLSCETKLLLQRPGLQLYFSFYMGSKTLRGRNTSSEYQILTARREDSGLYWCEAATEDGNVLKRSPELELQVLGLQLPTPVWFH

[2] = biological target: T2, human FcγR CD32a R131-GST fusion protein (human, UniProt P12318 34-217); test: ALPHAscreen competition
T2 chain: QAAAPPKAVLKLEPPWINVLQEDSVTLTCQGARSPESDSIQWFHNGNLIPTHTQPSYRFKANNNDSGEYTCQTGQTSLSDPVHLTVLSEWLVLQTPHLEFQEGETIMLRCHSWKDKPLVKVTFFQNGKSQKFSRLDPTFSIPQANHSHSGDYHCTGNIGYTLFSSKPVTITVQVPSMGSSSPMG

[3] = biological target: T3, human FcγR CD32b-GST fusion protein (human, UniProt P31994 43-217); test: ALPHAscreen competition
T3 chain: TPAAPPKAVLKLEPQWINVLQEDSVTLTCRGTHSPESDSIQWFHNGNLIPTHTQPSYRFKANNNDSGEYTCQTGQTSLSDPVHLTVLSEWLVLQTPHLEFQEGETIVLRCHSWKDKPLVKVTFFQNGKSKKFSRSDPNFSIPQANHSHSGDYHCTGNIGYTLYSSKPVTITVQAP

[4] = biological target: human FcγR CD16a V158-GST fusion protein (human, UniProt P08637 17-208); test: ALPHAscreen competition
[5] = biological target: T4, human CD40 (cell surface) (UniProt P25942 20-277); test: flow cytometry, B cells in whole blood; A647-conjugated
[6] = biological target: T5, cynomolgus monkey CD40 (cell surface); test: flow cytometry, B cells in whole blood; geometric mean, A647-conjugated
T5 chain: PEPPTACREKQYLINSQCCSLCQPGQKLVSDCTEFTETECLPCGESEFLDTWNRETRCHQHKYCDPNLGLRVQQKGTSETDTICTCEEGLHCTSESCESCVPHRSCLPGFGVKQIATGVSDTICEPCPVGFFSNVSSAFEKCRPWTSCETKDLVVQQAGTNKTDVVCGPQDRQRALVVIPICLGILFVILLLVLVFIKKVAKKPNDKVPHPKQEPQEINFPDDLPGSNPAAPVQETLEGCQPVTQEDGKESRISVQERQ

[7] = biological target: T4, human CD40 (cell surface); test: as above
[8] = biological target: T4, human CD40 (cell surface); test: flow cytometry; 4-P fit parameter C
[9] = biological target: T6, rhesus monkey CD40 (cell surface) (rhesus monkey, UniProt F6SNI1 21-278); test: flow cytometry, CHO-CD40; avid
T6 chain: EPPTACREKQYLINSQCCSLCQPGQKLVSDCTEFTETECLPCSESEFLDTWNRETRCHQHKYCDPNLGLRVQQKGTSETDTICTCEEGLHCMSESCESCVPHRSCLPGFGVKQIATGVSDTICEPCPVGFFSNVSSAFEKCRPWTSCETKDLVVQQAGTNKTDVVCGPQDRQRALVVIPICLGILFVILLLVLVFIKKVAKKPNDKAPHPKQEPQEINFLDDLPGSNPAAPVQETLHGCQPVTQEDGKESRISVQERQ

[10] = biological target: T5, cynomolgus monkey CD40 (cell surface); test: flow cytometry, CHO-CD40; avid
[11] = biological target: T4, human CD40 (cell surface); test: flow cytometry, CHO-CD40; avid

Sequence of human FcγR CD16a V158-GST fusion protein (P08637 17-208 F176V): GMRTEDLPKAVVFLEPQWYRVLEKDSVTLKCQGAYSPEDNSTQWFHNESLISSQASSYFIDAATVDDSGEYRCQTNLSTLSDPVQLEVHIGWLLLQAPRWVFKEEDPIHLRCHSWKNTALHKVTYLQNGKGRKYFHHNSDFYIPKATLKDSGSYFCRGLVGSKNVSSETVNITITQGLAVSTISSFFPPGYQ

- IC50 [1]: 14.7 µg/mL
- IC50 [2]: 118 µg/mL
- IC50 [3]: 282 µg/mL
- IC50 [4]: 680 µg/mL
B1: Exemplary Anti-CD40 Antibody 1 (antibody)
heavy: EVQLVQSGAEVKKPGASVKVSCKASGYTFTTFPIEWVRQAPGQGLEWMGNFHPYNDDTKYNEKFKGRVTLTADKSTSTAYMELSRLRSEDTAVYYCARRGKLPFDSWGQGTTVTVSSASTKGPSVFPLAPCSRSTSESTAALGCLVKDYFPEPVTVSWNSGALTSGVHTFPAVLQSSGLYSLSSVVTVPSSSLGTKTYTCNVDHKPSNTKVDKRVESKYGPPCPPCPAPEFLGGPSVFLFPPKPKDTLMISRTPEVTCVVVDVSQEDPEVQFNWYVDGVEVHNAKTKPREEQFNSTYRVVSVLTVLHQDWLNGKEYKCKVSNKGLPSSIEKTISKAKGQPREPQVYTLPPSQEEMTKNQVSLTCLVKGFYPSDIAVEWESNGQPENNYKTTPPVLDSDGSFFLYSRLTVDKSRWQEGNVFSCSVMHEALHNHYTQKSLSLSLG
light: DIQMTQSPSSLSASVGDRVTISCRASQDISNYLNWYQQKPGKVPKLLIYFTSRLRSGVPSRFSGSGSGTDYTLTISSLQPEDVATYYCQQDRKLPWTFGQGTKLEIKRTVAAPSVFIFPPSDEQLKSGTASVVCLLNNFYPREAKVQWKVDNALQSGNSQESVTEQDSKDSTYSLSSTLTLSKADYEKHKVYACEVTHQGLSSPVTKSFNRGEC
modifications: Alexa647 conjugate in some whole-blood assays; N-linked glycan on the heavy chain; neither is carried by the letters.

- EC50 [5]: 0.0777 µg/mL
- EC50 [6]: 0.109 µg/mL
- EC50 [7]: 0.0626 µg/mL
- EC50 [8]: 0.0804 µg/mL
- EC50 [9]: 0.249 µg/mL
- EC50 [10]: 0.131 µg/mL
- EC50 [11]: 0.0895 µg/mL
B2: Agly hAKH3 IgG4P/IgG1 (antibody, V domains shown)
VH: EVQLVQSGAEVKKPGASVKVSCKASGYTFTTFPIEWVRQAPGQGLEWMGNFHPYNDDTKYNEKFKGRVTLTADKSTSTAYMELSRLRSEDTAVYYCARRGKLPFDSWGQGTTVTVSS
VL: DIQMTQSPSSLSASVGDRVTISCRASQDISNYLNWYQQKPGKVPKLLIYFTSRLRSGVPSRFSGSGSGTDYTLTISSLQPEDVATYYCQQDRKLPWTFGQGTKLEIK
